Changes are numbered by the printed parent chain. Numbers in names are those of the source.
Molecular target: T1, human HER2 and HER4 (Homo sapiens, UniProt Q15303)
T1 construct: expressed in transfected cells
Test: Screening by human HER2-HER4 mediated ERK 1/2 phosphorylation in CHO-hHER2-hHER4 (clone 1H6) cells
Assay type: cell-based
Conditions: Fc variants as 293F supernatants
Experimental: A cell based assay utilizing CHO-K1 cells overexpressing human or rat HER receptors is used to determine activity of NRG4 compounds. CHO-K1 cells (ATCC) are grown in DMEM-F12 3:1 with 5% FBS with 20 mM HEPES, 40 μg/mL L-Proline, lx antibiotics and were split 1:5 every 2-3 days with TripLE Express (Gibco). Cells are transfected with plasmid DNA encoding HER receptors in pairs (hHER2-3, hHER2-4, rHER2-3 and rHER2-4) with Fugene 6 (Promega) according to the manufacturer's instructions. […] Transfected cells are selected with Puromycin (12 ug/ml) and Hygromycin (1 mg/ml) for 3-4 weeks and clonal lines are obtained by limited dilution cloning into 96 well plates. Clonal lines are selected by appropriate gene expression of HER2, HER3 or HER4 by Taqman method. Lines with appropriate receptor expression are confirmed by NRG1 induced phospho-ERK 1/2 responses. Clones are grown up, harvested, aliquoted into cryovials and then frozen under liquid nitrogen for long-term storage.
A phospho-ERK1/2 activity assay is used to determine potencies of NRG4 compounds. The potency of Examples 1-8 and 10 as compared to WT human NRG1 and/or human NRG4 are analyzed in studies measuring stimulation of human HER2-HER4 mediated ERK 1/2 phosphorylation. This assay comprises a CHO-K1 stable line expressing human HER2 and HER4. CHO-hHER2-hHER4 (clone 1H6) cells are routinely cultured in DMEM: F12(3:1), 5% FBS, 40 μg/mL L-Proline, 10 μg/mL puromycin and 1 mg/mL hygromycin at 37° C., 5% CO2. Cells are washed twice with 1×PBS, dissociated with 0.05% trypsin/[…] EDTA and collected by centrifugation at 300×g for 10 m. Cells are re-suspended in maintenance media. 20,000 cells/well, in 30 μL, are seeded into 384 well Poly-D-Lysine cell culture plates (Greiner, Cat No. 781946). Plates are covered with a manufacturer's lid and moved to a 37° C. tissue culture incubator at 5% CO^2, 80%+ humidity and allowed to adhere. After 24 h, media are removed from the plates and replaced with 30 μL serum-free starvation media (Low glucose DMEM with 0.1% BSA) using a Biomek FX liquid handler. Plates are returned to the incubator for 24 h.
hFcNRG4 variants, transiently expressed as 293F supernatants, are prepared in starvation media in a clear 384W plate (Greiner, cat no. 781185) as a 4pt 1:8 serial dilution (dose range averaged between 250 pM to 140000 pM). Media are removed from the cell culture plates and the 30 uL/well prepared variants are stamped into the plates using a Biomek FX liquid handler. Plates are sealed with a foil seal and stimulated for 15 minutes at room temperature on an orbital shaker. Cells are then washed once with 50 uL cold PBS. 30 uL lysis buffer is added to the cells and oscillated for 10 m at RT on an orbital shaker.
Detection of phosphorylation of ERR 1/2 is performed with either an AlphaScreen SureFire phospho-ERK1/2 kit (T202/Y204) (Perkin Elmer, catalog no. TGRES) or an AlphaLISA® SureFire® Ultra™ p ERK1/2 assay kit together with the AlphaScreen Protein. A IgG Detection Kit (Protein-A) (PerkinElmer, catalogue no. 6760617). After lysis of the CHO-K1 cells. 4 μL lysate is transferred to a 384W Alpha Proxiplate (Perkin Elmer, cat no, 6008280) with a 384W Biomek FX. 4 uL positive and negative lysates (Perkin Elmer, TGRES-L) are added to available wells as controls. 5 uL/well acceptor mix (containing anti-phoso-Thr202/Tyr204 antibodies and Protein A conjugated acceptor beads) is added to the plate with a Forumlatrix Mantis. The plate is sealed, spun down for 1 min at 300×g and incubated for 2 hr at room temperature on an orbital shaker. 2 μL/well donor mix (containing strepavidin coated donor beads and biotinylated antibodies to a distal ERK1/2 epitope) is dispensed by Mantis. The plate is sealed, spun down for 1 min at 300×g and incubated for 2 hr at room temperature on an orbital shaker before reading on the Perkin Elmer Envision 2103 Multilabel Reader (HIS Alpha mode, excitation time: 40 ms, total measurement time: 130 ms). […]

Molecule: WT NRG1: wild type human NRG1; native peptide purchased from Reprokine in Tables 7-9; comparator in the screening assays of Tables 4 and 6
- EC50 (Table 6): 0.319 nM

Molecule: WT NRG4: wild type human NRG4 (SEQ ID NO:1); parental hFcNRG4 in screening (Tables 4-6), native peptide from Reprokine in Tables 7-9 (DHEEPCGPSHKSFCLNGGLCYVIPTIPSPFCRCVENYTGARCEEVFL; listed as Homo sapiens)
- EC50 (Table 5, Examples average of two replicates ± standard deviation): 2.53 nM
- EC50 (Table 6): 1.3 nM

B1: Example 10: NRG4 D1G/V22Q/E44K, (GGGGS)3 linker, SEQ ID NO: 19, fused to IgG Fc dimer SEQ ID NO: 6 and 7 (protein)
chain 1: GGGGSGGGGSGGGGSGHEEPCGPSHKSFCLNGGLCYQIPTIPSPFCRCVENYTGARCEKVFL
chain 2: ECPPCPAPPVAGPSVFLFPPKPKDTLMISRTPEVTCVVVDVSHEDPEVQFNWYVDGVEVHNAKTKPREEQFNSTFRVVSVLTVVHQDWLNGKEYKCKVSNKGLPAPIEKTISKTKGQPREPQVYTLPPSREEMTKNQVSLWCLVKGFYPSDIAVEWESNGQPENNYKTTPPVLDSDGSFFLYSKLTVDKSRWQQGNVFSCSVMHEALHNHYTQKSLSLSPG
chain 3: B1 chain 2 with W141S, L143A, Y182V
- EC50 (Table 6): 0.245 nM

— US11242370B2, “Neuregulin-4 compounds and methods of use” (Eli Lilly and Company, priority 2019, dated 2022)
